Measured values as given in paper PMC2811071.

Target: T1, raver1 RRM1 (human (Homo sapiens), UniProt Q8IY67 59-130)
T1 sequence: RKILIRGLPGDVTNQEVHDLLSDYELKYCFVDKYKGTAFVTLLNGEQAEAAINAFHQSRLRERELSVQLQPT
Assay: ITC

Q: Does UCAUGCAGUCUG (ssRNA) [vinculin mRNA 12-mer] bind?
A: Result: binds
